What is called Kd is the constant that tells how readily two partners part at equilibrium.

The target in the assay is T1, BsPBP2B (Bacillus subtilis, UniProt Q07868 1-713).
T1 construct: Not pulled down by Ni-NTA beads alone; also called class B PBP2B; source: E. coli BL21 (DE3), purified from membranes (Ni-NTA, thrombin, HiTrap SP ion exchange)
T1 sequence (looked up): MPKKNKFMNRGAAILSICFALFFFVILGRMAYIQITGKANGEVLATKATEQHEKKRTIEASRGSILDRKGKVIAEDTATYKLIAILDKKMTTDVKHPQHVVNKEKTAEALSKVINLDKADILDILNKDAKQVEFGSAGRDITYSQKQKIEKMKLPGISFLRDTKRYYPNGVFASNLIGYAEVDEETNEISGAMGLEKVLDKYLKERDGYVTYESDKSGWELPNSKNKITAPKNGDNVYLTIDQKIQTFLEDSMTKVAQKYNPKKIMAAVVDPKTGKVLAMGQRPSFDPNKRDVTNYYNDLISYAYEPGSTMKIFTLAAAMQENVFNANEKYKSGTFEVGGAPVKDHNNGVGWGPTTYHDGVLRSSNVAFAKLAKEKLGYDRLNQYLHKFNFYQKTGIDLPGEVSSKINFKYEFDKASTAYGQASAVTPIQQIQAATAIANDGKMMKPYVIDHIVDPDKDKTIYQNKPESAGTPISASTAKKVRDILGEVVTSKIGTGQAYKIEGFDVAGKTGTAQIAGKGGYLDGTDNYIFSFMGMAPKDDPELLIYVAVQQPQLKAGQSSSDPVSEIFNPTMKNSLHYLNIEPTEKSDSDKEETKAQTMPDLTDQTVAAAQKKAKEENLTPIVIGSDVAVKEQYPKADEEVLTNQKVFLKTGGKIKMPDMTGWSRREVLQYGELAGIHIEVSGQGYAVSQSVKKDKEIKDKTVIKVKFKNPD
As to the kind of experiment: SPR; PBP2B covalently bound to ampicillin immobilised on the chip; BsMltG injected as analyte, 0 to 500 nM; 25 C; 10 mM Tris/Maleate, 150 mM NaCl, 0.05% Triton X-100, pH 7.5; response at equilibrium fitted to one site saturation; three independent experiments. Particulars: both partners purified. Background: Surface plasmon resonance follows binding to a sensor surface in real time, without labels.

B1: BsMltG (enzyme, Bacillus subtilis, UniProt O34758 1-360, looked up)
chain: MYINQQKKSFFNKKRIILSSIVVLFLIIGGAFLYGKSLLEPVEKDSKTTVNINIPSGSSVSAIASILKKNDVIKSEKAFQYYVKYKGASGFQAGFYHLNKGMDLDAIIQKLTSGATGYAFQITVTEGAQLTQIAAAIADETKYSKKQVIAKLDDETFINQLKKEFPDTVTNDVFNKNIKHPLEGYLFPATYPFNDPDTSLEDIIKAMIKQTNSYVETYKSEMKKNKVSVHKLLTMASLIEEEATEKADRHKIASVFYNRLKKKMPLQTDPTVLYAAGKHKDRVLYKDLEIDSPYNTYKNTGLTPGPIANAGMSSWEAALHPDKTDYLYFLAKSNGEVVFTKTLKEHNKAKEKYISSKNEK
notes: Named without 'His-' in the SPR and activity assays; also called YrrL; MltG from Bacillus subtilis; source: E. coli BL21 (DE3), purified from membranes (Ni-NTA, thrombin, HiTrap SP ion exchange)
B1 came in with a Kd of 128 ± 28 nM.
